# Data published in paper PMC5507214.
# B1: R:D (25-bp RNA:DNA hybrid) (DNA:RNA)
# RNA: GCAGCUGGCACGACAGGUAUGAAUC
# DNA: GATTCATACCTGTCGTGCCAGCTGC
# Target: RPA (Homo sapiens, UniProt P27694;P15927;P35244 1-616;1-270;1-121)
# Test: EMSA
# Sequence of RPA (P27694 whole entry, chain 1 of 3): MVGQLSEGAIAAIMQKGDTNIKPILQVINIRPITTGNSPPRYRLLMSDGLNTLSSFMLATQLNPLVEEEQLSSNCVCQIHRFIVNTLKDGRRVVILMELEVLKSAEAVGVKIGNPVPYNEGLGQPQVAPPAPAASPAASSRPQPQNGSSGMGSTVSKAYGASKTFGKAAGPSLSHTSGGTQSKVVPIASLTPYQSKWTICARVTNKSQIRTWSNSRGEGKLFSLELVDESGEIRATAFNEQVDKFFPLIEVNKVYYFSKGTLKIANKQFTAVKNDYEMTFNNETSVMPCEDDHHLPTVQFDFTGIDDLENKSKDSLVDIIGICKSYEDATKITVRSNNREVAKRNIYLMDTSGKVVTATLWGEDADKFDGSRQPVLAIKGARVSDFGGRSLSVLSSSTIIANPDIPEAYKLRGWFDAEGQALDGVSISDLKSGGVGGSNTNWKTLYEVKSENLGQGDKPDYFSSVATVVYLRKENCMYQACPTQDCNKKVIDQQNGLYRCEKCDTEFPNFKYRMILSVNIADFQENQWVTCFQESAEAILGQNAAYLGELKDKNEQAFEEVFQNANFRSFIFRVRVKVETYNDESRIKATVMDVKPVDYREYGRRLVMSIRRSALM
# Sequence of RPA (P15927 whole entry, chain 2 of 3): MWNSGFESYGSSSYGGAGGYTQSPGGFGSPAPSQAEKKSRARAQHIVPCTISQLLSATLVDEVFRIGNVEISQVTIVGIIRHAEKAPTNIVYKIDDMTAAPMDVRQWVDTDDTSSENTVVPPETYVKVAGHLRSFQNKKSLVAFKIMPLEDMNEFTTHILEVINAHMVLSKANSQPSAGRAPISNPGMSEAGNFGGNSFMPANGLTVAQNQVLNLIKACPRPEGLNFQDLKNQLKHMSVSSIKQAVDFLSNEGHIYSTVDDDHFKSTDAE
# Sequence of RPA (P35244 whole entry, chain 3 of 3): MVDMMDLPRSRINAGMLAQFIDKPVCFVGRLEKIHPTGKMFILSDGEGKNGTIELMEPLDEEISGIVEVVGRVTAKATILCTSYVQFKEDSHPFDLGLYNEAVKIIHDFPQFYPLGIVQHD
binder,measurement,value
B1,binding result,no binding
